From patent US20090068158A1, “THYMIDYLATE KINASE MUTANTS AND USES THEREOF” (priority 2005, published 2009)
Residue numbers refer to the chain shown, from its start. In names and notes the source's numbering stands. Entries after “also recorded” stand apart in the source; their conditions may differ.

Assays:
Jurkat cells [1] = test: AZT sensitivity of LV-tmpk-transduced Jurkat cells (MTT cell viability assay); assay type: cell-based, human; details: for cell viability upon addition of AZT (in words), Example 15: clonal Jurkat cells, AZT up to 1 mM, 4 days
Protocol: Transduced Jurkat cells and the single-cell clones were seeded in 96 well plates (2×10^5/well) in 200 μl of medium containing increasing concentrations of AZT (0, 1, 10 and 100 μM). The medium was changed daily. […] Data are expressed as mean±standard error of mean (SEM).
To examine the AZT-mediated celikilling activity of tmpk cDNA, each of transduced cells were incubated with the increasing concentration of AZT. After incubating both non-transduced and LV-transduced cells with AZT for […], cell viability was determined using MTT assay (FIG. 4A).
Transduced Jurkat cells and single-cell clones were seeded in 96 well plates (2×10^5 cells/well) in 200 μl of the RPMI medium described above with increasing concentrations of AZT (0, 0.1, 1, 10, 100 μM, and 1 mM). The medium was changed daily. After 4 days of culture, cell viability was determined by using Cell Titer 96 Aqueous One Solution Cell Proliferation Assay kit (Promega, Madison, Wis.).

Jurkat cells [2] = test: HPLC determination of intracellular AZT metabolites in cells treated with 100 μM AZT; assay type: cell-based, human
Protocol: The cells were cultured in the presence of 100 μM AZT for 36 hrs. 10^7 cells were homogenized by sonication in 100 μl of 5% (w/v) trichloroacetic acid. The supernatant is collected after homogenate had been centrifuged at 10,000×g for 15 min at 4° C. The trichloroacetic acid was removed by extraction with an equal volume of 20% tri-n-octylamine in pentane. The neutralized aqueous fraction is directly injected into HPLC. Separation of AZT and its metabolites was performed on a C18 column (Waters) with a mobile phase composed of 0.2 M phosphate buffer containing 4 mM tetrabutylammonium hydrogen sulfate (pH 7.5) and acetonitrile in the ratio of 97:3 (v/v). The mobile phase was pumped at a flow rate of 1.5 ml/min. The UV absorbance was monitored at 270 nm. Five million cell equivalents were injected and analyzed in triplicate.
Cells were cultured in the presence of 100 μM AZT for 36 h. 10^7 cells were homogenized by sonication in 100 μl of 5% (w/v) trichloroacetic acid (TCA). The supernatant was collected after centrifugation at 10,000×g for 15 min at 4° C. TCA was removed by extraction with an equal volume of 20% tri-n-octylamine in pentane. The neutralized aqueous fraction was directly injected into the HPLC machine (Waters, Milford. MA). Separation of AZT and its metabolites were performed on a C18 column (Waters), with a mobile phase composed of 0.2 M phosphate buffer containing 4 mM tetrabutylammonium hydrogen sulfate (pH 7.5) and acetonitrile in the ratio of 97:3 (v/v)^48 at a flow rate of 1.5 ml/min. The UV absorbance was monitored at 270 nm. Standards for each AZT-metabolite (AZT-MP, AZT-DP, and AZT-TP) were purchased from Moravek Biochemicals (Brea, Calif.). Five million cell equivalents were injected and analyzed in triplicate.

Jurkat cells [3] = test: AZT sensitivity in LV-TMPK (Lentigen) transduced Jurkat cells; assay type: cell-based, human; details: increasing concentrations of AZT
Protocol: The function of tmpk was tested by assessing sensitivity to AZT (FIG. 21).

Jurkat cells [4] = test: Induction of apoptosis by 100 μM AZT in LV-tmpk-transduced Jurkat cells (annexin V staining); assay type: cell-based, human; details: 4 days; for early apoptotic cell index in response to AZT treatment: transduced Jurkat cells, n=3
Protocol: Cells were seeded in 24 well plates (10^6/well) in 1 ml of medium with or without 100 μM of AZT. The medium was changed daily. After 4 days of culture, induction of apoptosis in the cells were analyzed by annexin-V staining according to the manufacturer's protocol (Annexin V-APC: BD Pharmingen). **, P<0.01, n=3. Data are expressed as mean±SEM.
(§1) For evaluation of the induction of apoptosis, treated Jurkat clonal cells were stained with Annexin V. Briefly, cells were seeded in 24 well plates (10^6 cells/well) in 1 ml of medium with or without 100 μM AZT. After 4 days of culture, Annexin V staining was performed according to the manufacturer's protocol (Annexin V-APC: BD Pharmingen). For testing whether AZT-mediated cell killing depends on the cellular proliferation, indirubin-3′-monoxime (final concentration 5 μM, Sigma-Aldrich, St. Louis, Mo.) was added simultaneously with 100 μM AZT to the culture.
(§2) To simplify comparative studies a relative apoptotic index was calculated. Here data obtained was normalized by dividing results from AZT treated cells in each condition by the results obtained without added AZT. Values were reported as fold increases. Statistical significance between groups was calculated by ANOVA.

Jurkat cells [5] = test: Loss of mitochondrial membrane potential after AZT (JC-1 staining, flow cytometry); assay type: cell-based, human; details: transduced Jurkat cells, 100 μM AZT
Protocol: Cells (10^6 cells) treated with (shown (+) in figure) or without (−) 100 μM AZT were stained with JC-1 for […] at 37° C., and then were analyzed by flow cytometry. ***, P<0.001, n=3.
(§3) Transduced cells […] were treated with 100 μM AZT for 4 days or left untreated. To detect changes in the mitochondrial inner membrane potential, the cells were incubated with 5,5′,6,6′-tetrachloro-1,1′,3,3′-tetraethylbenzimidazolylcarbocyanine iodide (JC-1, Molecular Probes Inc.) for 30 min at 37° C., and were then analyzed using a FACS Calibur. The activation of caspase-3 in cells was examined using the FACS Calibur following incubation with an FITC-labeled caspase 3 inhibitor peptide (FITC-DEVD-FMK, Calbiochem, San Diego, Calif.) for 1 hr at 37° C.

Jurkat cells [6] = test: AZT-induced apoptosis/cell killing under cell cycle arrest with indirubin-3'-oxime; assay type: cell-based, human
Protocol: Cells were seeded in 24-well plates (10^6/well) in 1 ml of medium containing 0 (shown in AZT (−) in figure) or 100 μM of AZT (shown in AZT (+)) with or without 5 μM indirubin-3′-oxime (Figure (B) and (A), respectively). The medium was refreshed daily. After 2 days of culture, induction of apoptosis by AZT was analyzed by annexin V staining according to the manufacturer's protocol described. **, P<0.01, n=3. Data are expressed as mean±SEM.
as §1, §2

K562 cells = test: Growth of transduced K562 cells xenografted into AZT-treated NOD/SCID mice; assay type: in vivo; details: for tumor size / final tumor volume: transduced K562 cells sc in NOD/SCID mice, four and a half weeks past injection
Protocol: Female or male 5 to 8-week-old non-obese diabetic/severe combined immunodeficient (NOD/SCID) mice were purchased from Jackson Laboratory. Lentivirally-transduced or non-transduced K562 cells (20×10^6 cells) were resuspended in 0.5 mL Dulbecco's phosphate-buffered saline (D-PBS) per inoculum and injected subcutaneously (SC) into the right flanks of recipient mice. AZT treatment, which was administered intraperitoneally (IP) at the dose of 2.5 mg/kg/day, was started one day after injection and conducted for 14 days. In vivo tumor cell growth was monitored by measuring tumor size for up to 32 days post-inoculations. All experimental data were reproduced at least twice.
Transduced K562 cells were affinity-purified by MACS using magnetic beads conjugated with an anti-human CD19 monoclonal antibody (Miltenyi Biotec Inc., Auburn, Calif.). The purity of the cells following isolation was evaluated by FACS Calibur. Non-obese diabetic/severe combined immunodeficiency (NOD/SCID) mice (5 to 8-weeks old, purchased from Jackson Laboratories, Bar Harbor, Me.) were maintained at the Animal Resource Centre at the Princess Margaret Hospital (Toronto, ON, Canada). The entire animal experimental procedure followed a protocol approved by the Animal Care Committee of the UHN. Experimental groups consisted of male and female NOD/SCID mice injected with 2×10^7 K562 cells (resuspended in 0.5 mL D-PBS; Oxoid, Basingstoke, England) that were either lentivirally-transduced (n=10 for each LV) or non-transduced (NT) (n=10). Injections were performed subcutaneously (sc) into the dorsal right flanks of recipient mice as previously described^49. One day after injection of the cells, half of the mice in each group (n=5) began receiving daily AZT injections, administered intraperitoneally (ip) at a dose of 2.5 mg/kg/day for 14 days. Tumor growth was measured by caliper and calculated as 0.5×length×width^2 (in mm^3) for up to […].

Jurkat cells [7] = test: Activation of caspase 3 by AZT (FITC-DEVD-FMK, flow cytometry); assay type: cell-based, human; details: clonal Jurkat cells, 100 μM AZT, 4 days
Protocol: as §3

primary human T cells = test: Induction of apoptosis by AZT in transduced primary human T cells (annexin V); assay type: cell-based; details: 100 μM AZT, 4 days
Protocol: Human T lymphocytes were isolated from PBMNCs contained within heparinized blood obtained from healthy human donors by Ficoll-Hypaque (GE Healthcare) separations. Mouse T cells were prepared from B cell-depleted splenocyte preparations using goat anti-mouse IgG beads (BioMag, Qiagen, Mississauga, ON). T cells were activated by using anti-CD3 and anti-CD28 coated beads (PMID: 12855580) in a ratio of 1:3 (cell:beads) with 20 IU/mL of recombinant human interleukin 2 (R&D Systems, Minneapolis, Minn.) for 3 days. Cells were infected with concentrated virus stocks for 3 h on ice using an indicated MOI in the presence of 8 μg/ml protamine sulfate. Infected cells were then kept in culture for 5 days prior to evaluating gene transfer efficiency. Gene transfer efficiencies were measured by flow cytometry using a monoclonal anti-human CD19-antibody conjugated with phycoerythrin (PE) as described above. Induction of apoptosis following AZT-exposure was evaluated by Annexin V-staining as above.

[8] = Enzymatic activity of tmpk mutants for AZT-MP; assay type: biochemical, human

In the case of `Cc1cn([C@H]2C[C@H](N=[N+]=[N-])[C@@H](CO)O2)c(=O)[nH]c1=O` [AZT, Zidovudine, reference compound], the IC50 (Jurkat cells [1]; Homo sapiens, 120 h, LV-tmpk mutant transduced Jurkat cells, AZT 0-100 μM, 5 days, read-out: IC50 of AZT for killing of transduced cells) is reported as 2000 nM, the “intracellular ratio of AZT-TP to AZT-MP in non-transduced cells” value (Jurkat cells [2]; non-transduced Jurkat cells, 100 μM AZT for 36 h) is reported as 0.02 and the “AZT sensitivity of transduced cells (in words)” value (Jurkat cells [3]) is reported as “dose dependent killing”.

B1: wild-type tmpk: wild-type human thymidylate kinase overexpressed by LV transduction, comparator (protein, UniProt P23919 2-212, looked up)
Thymidylate kinase: AARRGALIVLEGVDRAGKSTQSRKLVEALCAAGHRAELLRFPERSTEIGKLLSSYLQKKSDVEDHSVHLLFSANRWEQVPLIKEKLSQGVTLVVDRYAFSGVAFTGAKENFSLDWCKQPDVGLPKPDLVLFLQLQLADAAKRGAFGHERYENGAFQERALRCFHQLMKDTTLNWKMVDASKSIEAVHEDIRVLSEDAIRTATEKPLGELWK
For B1, the “cell viability upon addition of AZT (in words), Example 15” value (Jurkat cells [1]) was “limited cell killing”, the “AZT sensitivity / cell killing of transduced cells (in words)” value (Jurkat cells [1]; transduced Jurkat cells, AZT up to 100 μM) was “non-sensitive to AZT up to 100 μM; also recorded: unaffected by AZT up to 100 μM” and the “early apoptotic cell index in response to AZT treatment” value (Jurkat cells [4]) was 6.2±0.3%. For the same molecule, the “intracellular ratio of AZT-TP to AZT-MP” value (Jurkat cells [2]; LV-transduced Jurkat cells, 100 μM AZT for 36 h) was 0.10, the “conversion of AZT-MP / accumulation of AZT-TP (in words)” value (Jurkat cells [2]; clonal Jurkat cells, 100 μM AZT 36 h) was “no significant increases in the accumulation of AZT-TP” and the “loss of mitochondrial (inner) membrane potential after AZT treatment (in words)” value (Jurkat cells [5]) was “did not demonstrate a similar loss of mitochondrial inner membrane potential”. The “apoptotic index with AZT in presence of indirubin-3'-monoxime (in words)” value (Jurkat cells [6]; clonal Jurkat cells, 100 μM AZT + 5 μM indirubin-3'-monoxime, 4 days) was “No significant increases”, the “cells killed by AZT after cell cycle arrest” value (Jurkat cells [6]; transduced Jurkat cells, indirubin-3'-oxime 5 μM, 100 μM AZT, 2 days) was 2% and the “tumor growth under AZT (in words), Example 8/10” value (K562 cells; transduced K562 cells in NOD/SCID mice, AZT 2.5 mg/kg for two weeks) was “no significant reduction in tumor volume”. For the same molecule, the “tumor size / final tumor volume” value (K562 cells; AZT 2.5 mg/kg for two weeks) was 2000 mm^2 and the “activation of caspase 3 by AZT (in words)” value (Jurkat cells [7]) was “slight, but significant, increase”.

B2: F105Y: modified human thymidylate kinase (tmpk), F to Y mutation at amino acid position 105 (SEQ ID NO: 11, 21) (protein, UniProt P23919 2-212, looked up, variant F105Y)
Thymidylate kinase: B1 Thymidylate kinase with F104Y
With B2 the “cell viability upon addition of AZT (in words), Example 15” value (Jurkat cells [1]) was “minimally viable”, the “fold increase of apoptotic index by AZT-treatment” value (Jurkat cells [4]; clonal Jurkat cells, normalized to no AZT) was 9.5±0.8 fold and the “early apoptotic cell index in response to AZT treatment” value (Jurkat cells [4]) was 40.7±1.7%. For the same molecule, the “loss of mitochondrial (inner) membrane potential after AZT treatment (in words)” value (Jurkat cells [5]) was “significant increase”, the “fold increase of apoptotic index by AZT in presence of indirubin-3'-monoxime” value (Jurkat cells [6]; clonal Jurkat cells, 100 μM AZT + 5 μM indirubin-3'-monoxime, 4 days, normalized to no AZT) was 2.3±0.4 fold and the “tumor growth under daily AZT (in words), Example 15” value (K562 cells; 2×10^7 transduced K562 cells sc in NOD/SCID mice, AZT 2.5 mg/kg/day ip for two weeks, day 14) was “strongly inhibited; also recorded: suppression of tumor growth”. For the same molecule, the “tumor size / final tumor volume” value (K562 cells; AZT 2.5 mg/kg for two weeks) was 100-300 mm^2, the “fold increase in percentage of activated caspase 3-positive cells by AZT” value (Jurkat cells [7]; normalized to no AZT) was 4.6±0.1 fold and the “fold increase of apoptotic index by AZT” value (primary human T cells) was 4.0±0.3 fold. The “enzymatic activity / catalytic conversion compared to wild-type tmpk (in words)” value [8] was “substantially increased catalytic conversion of AZT; also recorded: superior enzymatic activity”.

B3: R200A: modified human tmpk, R to A mutation at amino acid position 200 (SEQ ID NOS: 15 and 16) (protein, UniProt P23919 2-212, looked up, variant R200A)
Thymidylate kinase: B1 Thymidylate kinase with R199A
In the case of B3, the “enzymatic activity / catalytic conversion compared to wild-type tmpk (in words)” value [8] is reported as “superior enzymatic activity”.
